# According to paper PMC12548092, “Exploring Helical Fraying Linked to Dynamics and Catalysis in Adenylate Kinase” (Biochemistry, 2025):
# B1: AKeco (Escherichia coli K-12; K47A) (protein)
# chain: MRIILLGAPGAGKGTQAQFIMEKYGIPQISTGDMLRAAVKSGSELGAQAKDIMDAGKLVTDELVIALVKERIAQEDCRNGFLLDGFPRTIPQADAMKEAGINVDYVLEFDVPDELIVDRIVGRRVHAPSGRVYHVKFNPPKVEGKDDVTGEELTTRKDDQEETVRKRLVEYHQMTAPLIGYYSKEAEAGNTKYAKVDGTKPVAEVRADLEKILG
# Substrate: Nc1ncnc2c1ncn2[C@@H]1O[C@H](COP(=O)(O)OP(=O)(O)OP(=O)(O)O)[C@@H](O)[C@H]1O
# Assay: purified protein
# Details: varied substrate not named in table (text: substrates ATP and AMP)
protein,measurement,value
B1,Km,116 ± 8 µM
same,kcat,464 s⁻¹
same,kcat/Km,4e+06 M⁻¹ s⁻¹
